Test results: US11384119B2, “Compositions and methods for inhibiting CD279 interactions” (priority 2015, dated 2022)

Key:
[1] = system: tumour cell line LL/2; assay: In vivo LL/2 tumour model in C57Bl/6 mice; settings: 200 mg/kg IP for 7 days
Procedure: More particularly, mice strain C57Bl/6 (male, 4-weeks, initial body weight˜20-22 g) were inoculated with tumour cell line LL/2, at S.C. 10^5 per mouse. After 14 days post-implantation, the mice were treated with D-TW or D-TW-Scrambled for 7 days (at 200 mg/kg), via intraperitoneal (IP) injection.

[2] = biological target: T1, PD-1/PD-L1 interaction (Homo sapiens, UniProt Q9NZQ7); assay: IL-2 production by activated Jurkat T cells co-cultured with PD-L1-expressed U87 tumor cells (IL-2 ELISA); type: cell-based; design: endogenous in cells; host or cells: U87 tumor cells (PD-L1); Jurkat T cells (PD-1); settings: for IL-2 concentration: different peptide concentrations, 37° C. for 48 hours, FIGS. 3A-3C; for blocking of PD-1/PD-L1 interaction (summary of the foregoing assay results): summary of FIGS. 1-3, the combination is compared with a single test peptide treatment
Procedure: In this Example, 5×10^4 Jurkat T cells were activated with […] of PHA and 50 ng/ml of PMA and co-cultured with 3×10^5 PD-L1-expressed U87 tumor cells mixed with different concentrations of WT (FIG. 3A), TF (FIG. 3B), or combined WT and TF (FIG. 3C) peptide at 37° C. for 48 hours. Cell culture supernatants were harvested and IL-2 production from the Jurkat T cells was assessed by IL-2 ELISA. The numbers shown above each bar in FIGS. 3A-3C represent IL-2 concentrations. […] Moreover, as shown in FIGS. 3A-3C, as the concentrations of the test peptides were increased, an increase in IL-2 concentration was observed.
Target sequence in this assay (Q9NZQ7 19-290): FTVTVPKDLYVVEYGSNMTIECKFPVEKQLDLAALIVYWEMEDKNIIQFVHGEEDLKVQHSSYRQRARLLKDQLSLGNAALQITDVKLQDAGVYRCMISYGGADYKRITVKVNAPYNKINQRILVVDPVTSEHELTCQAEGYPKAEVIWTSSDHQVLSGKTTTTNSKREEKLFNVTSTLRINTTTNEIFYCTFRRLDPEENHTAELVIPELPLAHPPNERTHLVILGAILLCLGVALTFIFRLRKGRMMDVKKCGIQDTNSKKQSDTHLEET

[3] = biological target: T2, human PD-L1 (PD-1/PD-L1 interaction) (Homo sapiens, UniProt Q9NZQ7); assay: Competition ELISA: peptide blocking of recombinant human PD-1 Fc binding to plate-coated human PD-L1 Fc; settings: peptide 0.008 μg/ml to 10 μg/ml, human PD-1 Fc 10 ng/ml; FIG. 1
T2 construct: Fc
Procedure: The binding of the WT or TF peptide to human PD-L1 was tested via competition ELISA. Varying concentrations of each peptide (0.008 μg/ml to 10 μg/ml) were mixed with a fixed concentration of recombinant human PD-1 Fc (10 ng/ml) and bound to a human PD-L1 Fc coated 96-well Immuno Maxisorp flat bottom plate. Binding was detected via a biotinylated anti-PD-1 antibody, streptavidin-horseradish peroxidase (HRP), and 3,3′,5,5′-Tetramethylbenzidine (TMB) substrate. Absorbance measurements were collected at 450 nm via a plate reader. The absorbance readings were plotted against the test peptide concentration.
More particularly, in this Example and referring to FIGS. 5A and 5B, WT represents SEQ ID NO:1; TF represents SEQ ID NO:2; ET represents SEQ ID NO:25; YT represents SEQ ID NO:28; and TW represents the reverse sequence of WT with D-amino acids, SEQ ID NO:34 (also referred to herein as “D-TW”). Different combination of such PD-L1 blocking peptides (3 and 10 μM) were mixed with recombinant human PD-1 Fc and bound to a human PD-L1 Fc coated 96-well Immuno Maxisorp flat bottom plate. Binding was detected via a biotinylated anti-PD-1 antibody, streptavidin-horseradish peroxidase (HRP), and 3,3′,5,5′-Tetramethylbenzidine (TMB) substrate. Absorbance measurements were collected at 450 nm via a plate reader. […]

[4] = biological target: T1, PD-1/PD-L1 interaction; assay: IL-2 production by PHA/PMA-activated Jurkat T cells co-cultured with recombinant human PD-L1 Fc (IL-2 ELISA); type: cell-based; design: Fc; host or cells: Jurkat T cells (PD-1 side); settings: 1-10 μg/ml peptide, PD-L1 Fc 8 μg/ml, 37° C. for 48 hours; FIG. 2
Procedure: 5×10^4 Jurkat T cells were activated with 1 μg/ml of phytohemagglutinin (PHA) and 50 ng/ml of phorbol 12-myristate 13-acetate (PMA) and co-cultured with recombinant human PD-L1 Fc (8 μg/ml) plus 1-10 μg/ml of WT (FIG. 2A), 1-10 μg/ml of TF (FIG. 2B), or 1-10 μg/ml of combined WT and TF (FIG. 2C) peptide at 37° C. for 48 hours. Cell culture supernatant was harvested and interleukin-2 (IL-2) production from Jurkat T cells was assessed by IL-2 ELISA. The numbers shown above each bar in FIG. 2 represent IL-2 concentrations.
Target sequence in this assay (Q9NZQ7 19-238 limits assumed): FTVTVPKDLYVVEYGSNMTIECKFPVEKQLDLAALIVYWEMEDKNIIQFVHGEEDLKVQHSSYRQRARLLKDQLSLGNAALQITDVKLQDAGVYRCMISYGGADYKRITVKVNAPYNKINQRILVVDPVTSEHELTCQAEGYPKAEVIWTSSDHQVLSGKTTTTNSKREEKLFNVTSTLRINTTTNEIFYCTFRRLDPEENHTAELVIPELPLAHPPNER

T2 sequence (Q9NZQ7 19-238 limits assumed): as above

Row | blocking of PD-1/PD-L1 interaction (summary of the foregoing assay results) [2] | percent (%) inhibition of PD-1/PD-L1 interaction [3] | Compound | toxicity to mice [1] | IL-2 concentration [2] | IL-2 concentration [4]
1 |  |  | CSCC[C@@H](NC(=O)[C@@H](CO)NC(=O)[C@H]1CCCN1C(=O)[C@@H](CO)NC(=O)[C@@H](CC(N)=O)NC(=O)[C@@H](CCC(N)=O)NC(=O)[C@H](N)[C@H](C)O)C(=O)N[C@H](CCCNC(=N)N)C(=O)N[C@H](Cc1ccc(O)cc1)C(=O)N[C@H](Cc1c[nH]c2ccccc12)C(=O)O [D-TW, TQNSPSMRYW] | generally non-toxic |  | 
2 | able to block PD-1/PD-L1 interaction | the percent (%) inhibition increased | TAHPSPSPRSAGQF [TF] |  | yielded an increase in IL-2 concentration | yielded an increase in IL-2 concentration
3 | able to block PD-1/PD-L1 interaction | the percent (%) inhibition increased | WYRMSPSNQT [WT] |  | yielded an increase in IL-2 concentration | 
